The labels stand for the following.
B1: SPOPL (parent)
chain: AKREETKAMESQRAYRFVQGKDWG

Drawing on the supplement of paper PMC10567573, this text covers protein stability index for 94 variants.
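Also: lentivirally expressed fusions sorted by FACS into six bins by GFP to DsRed ratio, PSI derived from sequencing read proportions per bin multiplied by bin number.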

The variants in this series derive from B1. The experiment in a line: protein stability index of a GFP-peptide fusion (GPS, HEK-293T) (PSI 1-6); higher = more stable. As to conditions: c terminus: a fixed tail appended.
Take AKREETKAMESQRAYRQVQGKDWG: the protein stability index came to 4.37.

On to AKREETKAMESQRAYRLVQGKDWG, for which the protein stability index came to 3.67. Take AKREETKAMESQRAYRMVQGKDWG: the protein stability index worked out at 3.96.

Take AKREETKAMESQRAYRNVQGKDWG: the protein stability index was 4.59. To AKREETKAMESQRAYRAVQGKDWG belongs 4.73; to AKREETKAMESQRAYREVQGKDWG, 4.61. To AKREETKAMESQRAYRDVQGKDWG belongs 4.72; to AKREETKAMESQRAYRGVQGKDWG, 4.68. To AKREETKAMESQRAYRIVQGKDWG belongs 4.02; to AKREETKAMESQRAYRTVQGKDWG, 4.04.

On to AKREETKAMESQRAYRCVQGKDWG, for which the protein stability index is 4.24. With AKREETKAMESQRAYRRVQGKDWG, the protein stability index is 4.59. Next, AKREETKAMESQRAYRPVQGKDWG: 4.03; AKREETKAMESQRAYRSVQGKDWG: 4.19; AKREETKAMESQRAYRKVQGKDWG: 4.45.

Regarding AKREETKAMESQRAYRHVQGKDWG, the protein stability index amounted to 3.72. Turning to AKREETKAMESYRAYRFVQGKDWG, the protein stability index was 2.69.

Turning to AKREETKAMESWRAYRFVQGKDWG, the protein stability index was determined as 2.4. Next, AKREETKAMESQRAMRFVQGKDWG: 3.02.

Regarding AKREETKAMESQRAGRFVQGKDWG, the protein stability index came out at 4.

For AKREETKAMESQRAWRFVQGKDWG, the protein stability index came to 3.25. Regarding AKREETKAMESQRAKRFVQGKDWG, the protein stability index was 4.61. Turning to AKREETKAMESQRAQRFVQGKDWG, the protein stability index was determined as 3.89. With AKREETKAMESQRAARFVQGKDWG, the protein stability index is 4.14. Take AKREETKAMESQRADRFVQGKDWG: the protein stability index is 5.19. Consider AKREETKAMESQRAVRFVQGKDWG, for which the protein stability index came out at 3.92.

In the case of AKREETKAMESQRAERFVQGKDWG, the protein stability index turned out to be 4.26. For AKREETKAMESQRARRFVQGKDWG, the protein stability index worked out at 4.3. With AKREETKAMESQRAFRFVQGKDWG, the protein stability index was 1.39. AKREETKAMESQRAIRFVQGKDWG: the protein stability index was found to be 4.26.

For the variant AKREETKAMESQRANRFVQGKDWG, the protein stability index is 4.35. To AKREETKAMESQRAHRFVQGKDWG belongs 3.98. To AKREETKAMESQRALRFVQGKDWG belongs 2.51. Consider AKREETKAMESQRACRFVQGKDWG, for which the protein stability index was determined as 2.9. To AKREETKAMESQRATRFVQGKDWG belongs 4.7; to AKREETKAMESQRASRFVQGKDWG, 4.68; to AKREETKAMESQRAPRFVQGKDWG, 4.21. Next, AKREETKAMESQRAYLFVQGKDWG: 3.6; AKREETKAMESQRAYTFVQGKDWG: 4.04; AKREETKAMESQRAYMFVQGKDWG: 3.65. To AKREETKAMESQRAYWFVQGKDWG belongs 2.94.

On to AKREETKAMESQRAYGFVQGKDWG, for which the protein stability index stood at 3.63. To AKREETKAMESQRAYPFVQGKDWG belongs 3.68; to AKREETKAMESQRAYQFVQGKDWG, 4.17. AKREETKAMESQRAYSFVQGKDWG: the protein stability index stood at 4.04. As to AKREETKAMESQRAYEFVQGKDWG, the protein stability index was 4.2. Next, AKREETKAMESQRAYKFVQGKDWG: 3.99; AKREETKAMESQRAYHFVQGKDWG: 4.49; AKREETKAMESQRAYIFVQGKDWG: 3.42. For AKREETKAMESQRAYVFVQGKDWG, the protein stability index amounted to 3.51. On to AKREETKAMESQRAYAFVQGKDWG, for which the protein stability index came out at 3.69.

Turning to AKREETKAMESQRAYYFVQGKDWG, the protein stability index is 3.24.

Turning to AKREETKAMESQRAYDFVQGKDWG, the protein stability index turned out to be 4.07. Take AKREETKAMESQRAYFFVQGKDWG: the protein stability index worked out at 2.63. To AKREETKAMESQRAYNFVQGKDWG belongs 4.2; to AKREETKAMESQRAYCFVQGKDWG, 3.77. To AKREETKAMESQRPYRFVQGKDWG belongs 2.83. Next, AKREETKAMESQRDYRFVQGKDWG: 3.1; AKREETKAMESQRKYRFVQGKDWG: 3.98; AKREETKAMESQRMYRFVQGKDWG: 3.49. On to AKREETKAMESQRWYRFVQGKDWG, for which the protein stability index worked out at 2.81.

On to AKREETKAMESQRSYRFVQGKDWG, for which the protein stability index was determined as 3.3.

Consider AKREETKAMESQRCYRFVQGKDWG, for which the protein stability index came to 2.82. AKREETKAMESQRNYRFVQGKDWG: the protein stability index worked out at 3.24.

Regarding AKREETKAMESQRHYRFVQGKDWG, the protein stability index worked out at 3.38. Next, AKREETKAMESQREYRFVQGKDWG: 3.67. For AKREETKAMESQRGYRFVQGKDWG, the protein stability index was determined as 1.9.

Turning to AKREETKAMESQRQYRFVQGKDWG, the protein stability index came out at 3.25. For the variant AKREETKAMESQRTYRFVQGKDWG, the protein stability index is 3.63. To AKREETKAMESQRRYRFVQGKDWG belongs 3.18. Next, AKREETKAMESQRIYRFVQGKDWG: 3.8; AKREETKAMESQRFYRFVQGKDWG: 3.49. For the variant AKREETKAMESQRYYRFVQGKDWG, the protein stability index was found to be 2.83. Turning to AKREETKAMESQRLYRFVQGKDWG, the protein stability index was 3.3. To AKREETKAMESQRVYRFVQGKDWG belongs 3.42; to AKREETKAMESQYAYRFVQGKDWG, 3.32; to AKREETKAMESQGAYRFVQGKDWG, 3.61.

For AKREETKAMESQLAYRFVQGKDWG, the protein stability index came out at 2.36. AKREETKAMESQSAYRFVQGKDWG: the protein stability index turned out to be 3.38. AKREETKAMESQKAYRFVQGKDWG: the protein stability index is 3.67.

Turning to AKREETKAMESQFAYRFVQGKDWG, the protein stability index turned out to be 2.8. On to AKREETKAMESQAAYRFVQGKDWG, for which the protein stability index turned out to be 3.65.

Take AKREETKAMESQPAYRFVQGKDWG: the protein stability index was 2.61. To AKREETKAMESQDAYRFVQGKDWG belongs 4.47; to AKREETKAMESQCAYRFVQGKDWG, 2.72; to AKREETKAMESQQAYRFVQGKDWG, 3.67. Next, AKREETKAMESQMAYRFVQGKDWG: 2.54; AKREETKAMESQEAYRFVQGKDWG: 4.24; AKREETKAMESQVAYRFVQGKDWG: 2.28. Next, AKREETKAMESQIAYRFVQGKDWG: 3.11; AKREETKAMESQHAYRFVQGKDWG: 3.62; AKREETKAMESQWAYRFVQGKDWG: 2.26. On to AKREETKAMESQNAYRFVQGKDWG, for which the protein stability index is 3.92. AKREETKAMESQTAYRFVQGKDWG: the protein stability index was determined as 3.42.
